According to patent US20160143998A1 (Novo Nordisk, published 2016):
*1 amine or outer side, *2 acyl side, *3 side chain or, on linkers, in order; H or OH if unused. Where no end group is shown, it is not given here. Side-chain parts run from the residue outwards. [ ]: non-standard residue; d: D form. The star is where a group is joined. code 2xAEEA = O=C(COCCOCCN[*:1])NCCOCCOCC(=O)[*:2]; C20 diacid = O=C(O)CCCCCCCCCCCCCCCCCCC(=O)*; γGlu = O=C(O)[C@H](CCC(=O)[*:2])N[*:1]; Desaminohistidyl = O=C(CCc1c[nH]cn1)*; Trx = NC[C@H]1CC[C@H](C(=O)O)CC1; code LysOEG = not defined here; Lys(Bis) = not defined here; AEEA = NCCOCCOCC(=O)O; Aib = CC(C)(N)C(=O)O

B1: [Aib8,Glu22,Arg26,Arg34]-GLP-1-(7-37)-peptidyl-Pro-Ala-Glu-Glu-N{Epsilon}[(2S)-2,6-bis[[2-[2-[2-[[2-[2-[2-[[(4S)-4-carboxy-4-[[4-[(19-carboxynonadecanoylamino)m … (peptide)
peptide: H[Aib]EGTFTSDVSSYLEEQAAREFIAWLVRGRGPAEEK([Lys(Bis)-code 2xAEEA-AEEA-γGlu-Trx-C20 diacid])
modifications: reading uncertain
notes: Side chain read from the name: eps-Lys(Bis) branched linker, each leg C20 diacid-Trx-gGlu-2xOEG
B2: N{Alpha}([Aib8,Glu22,Arg26,Arg34]-GLP-1-(7-37)-peptidyl)-N{Epsilon}[(2S)-2,6-bis[[2-[2-[2-[[2-[2-[2-[[(4S)-4-carboxy-4-[[4-[(19-carboxynonadecanoylamino)methyl] … (peptide)
peptide: H[Aib]EGTFTSDVSSYLEEQAAREFIAWLVRGRGK([code LysOEG-AEEA-γGlu-Trx-C20 diacid)(OEG-AEEA-γGlu-Trx-C20 diacid])
modifications: reading uncertain; also: printed as N{Alpha}([Aib8,Glu22,Arg26,Arg34]-GLP-1-(7-37)-peptidyl)-N{Epsilon}[(2S)-2,6-bis[[2-[2-[2-[[2-[2-[2-[[(4S)-4-carboxy-4-[[4-[(19-carboxynonadecanoylamino)methyl]cyclohexanecarbonyl]amino]butanoyl]amino]ethoxy]ethoxy]acetyl]amino]ethoxy]ethoxy]acetyl]amino]hexanoyl]Lys
notes: as for B1
B3: N{Alpha}([Aib8,Glu22,Arg26,Arg34,Pro37]-GLP-1-(7-37)-peptidyl)-N{Epsilon}[(2S)-2,6-bis[[2-[2-[2-[[2-[2-[2-[[2-[2-[2-[[2-[2-[2-[[2-[2-[2-[[2-[2-[2-[[(4S)-4-carbo … (peptide)
peptide: H[Aib]EGTFTSDVSSYLEEQAAREFIAWLVRGRPK([code LysOEG-AEEA-AEEA-AEEA-AEEA-AEEA-γGlu-Trx-C20 diacid)(OEG-AEEA-AEEA-AEEA-AEEA-AEEA-γGlu-Trx-C20 diacid])
modifications: reading uncertain
notes: Side chain read from the name: eps-Lys(Bis) branched linker, each leg C20 diacid-Trx-gGlu-6xOEG
B4: [Aib8,Glu22,Arg26,Arg34]-GLP-1-(7-37)-peptidyl-Gly-Gly-Gly-Ser-N{Epsilon}[(2S)-2,6-bis[[2-[2-[2-[[2-[2-[2-[[(4S)-4-carboxy-4-[[4-[(19-carboxynonadecanoylamino)m … (peptide)
peptide: H[Aib]EGTFTSDVSSYLEEQAAREFIAWLVRGRGGGGSK([code LysOEG-AEEA-γGlu-Trx-C20 diacid)(OEG-AEEA-γGlu-Trx-C20 diacid])
modifications: reading uncertain
notes: as for B1
B5: N{Alpha}([Aib8,Glu22,Arg26,Arg34]-GLP-1-(7-37)-peptidyl)-N{Epsilon}[(2S)-2,6-bis[[2-[2-[2-[[2-[2-[2-[[(4S)-4-carboxy-4-[[1-(19-carboxynonadecanoyl)piperidine-4- … (peptide)
peptide: H[Aib]EGTFTSDVSSYLEEQAAREFIAWLVRGRGK
modifications: not fully specified (residue 32); printed as N{Alpha}([Aib8,Glu22,Arg26,Arg34]-GLP-1-(7-37)-peptidyl)-N{Epsilon}[(2S)-2,6-bis[[2-[2-[2-[[2-[2-[2-[[(4S)-4-carboxy-4-[[1-(19-carboxynonadecanoyl)piperidine-4-carbonyl]amino]butanoyl]amino]ethoxy]ethoxy]acetyl]amino]ethoxy]ethoxy]acetyl]amino]hexanoyl]Lys
notes: Side chain read from the name: eps-Lys(Bis) branched linker, each leg C20 diacid-Inp-gGlu-2xOEG
B6: [Aib8,Glu22,Arg26,Arg34]-GLP-1-(7-37)-peptidyl-Glu-Pro-Pro-Gly-N{Epsilon}[(2S)-2,6-bis[[2-[2-[2-[[2-[2-[2-[[(4S)-4-carboxy-4-[[4-[(19-carboxynonadecanoylamino)m … (peptide)
peptide: H[Aib]EGTFTSDVSSYLEEQAAREFIAWLVRGRGEPPGK([code LysOEG-AEEA-γGlu-Trx-C20 diacid)(OEG-AEEA-γGlu-Trx-C20 diacid])
modifications: reading uncertain
notes: as for B1
B7: [Aib8,Glu22,Arg26,Arg34]-GLP-1-(7-37)-peptidyl-Ala-Glu-Ala-Pro-N{Epsilon}[(2S)-2,6-bis[[2-[2-[2-[[2-[2-[2-[[(4S)-4-carboxy-4-[[4-[(19-carboxynonadecanoylamino)m … (peptide)
peptide: H[Aib]EGTFTSDVSSYLEEQAAREFIAWLVRGRGAEAPK([code LysOEG-AEEA-γGlu-Trx-C20 diacid)(OEG-AEEA-γGlu-Trx-C20 diacid])
modifications: reading uncertain
notes: as for B1
B8: [Imp7,Aib8,Glu22,Arg26,Arg34]-GLP-1-(7-37)-peptidyl-Gly-N{Epsilon}[(2S)-2,6-bis[[2-[2-[2-[[2-[2-[2-[[2-[2-[2-[[2-[2-[2-[[(4S)-4-carboxy-4-[[4-[(19-carboxynonade … (peptide)
peptide: [Desaminohistidyl][Aib]EGTFTSDVSSYLEEQAAREFIAWLVRGRGGK([Lys(Bis)-code 2xAEEA-AEEA-AEEA-AEEA-γGlu-Trx-C20 diacid])
modifications: reading uncertain; also: printed as [Imp7,Aib8,Glu22,Arg26,Arg34]-GLP-1-(7-37)-peptidyl-Gly-N{Epsilon}[(2S)-2,6-bis[[2-[2-[2-[[2-[2-[2-[[2-[2-[2-[[2-[2-[2-[[(4S)-4-carboxy-4-[[4-[(19-carboxynonadecanoylamino)methyl]cyclohexanecarbonyl]amino]butanoyl]amino]ethoxy]ethoxy]acetyl]amino]ethoxy]ethoxy]acetyl]amino]ethoxy]ethoxy]acetyl]amino]ethoxy]ethoxy]acetyl]amino]hexanoyl]Lys
notes: Side chain read from the name: eps-Lys(Bis) branched linker, each leg C20 diacid-Trx-gGlu-4xOEG
B9: N{Alpha}([Aib8,Glu22,Arg26,Arg34]-GLP-1-(7-37)-peptidyl)-N{Epsilon}[(2S)-2,6-bis[[2-[2-[2-[[2-[2-[2-[[(4S)-4-carboxy-4-(19-carboxynonadecanoylamino)butanoyl]ami … (peptide)
peptide: H[Aib]EGTFTSDVSSYLEEQAAREFIAWLVRGRGK([code LysOEG-AEEA-γGlu-C20 diacid)(OEG-AEEA-γGlu-C20 diacid])
modifications: reading uncertain; also: printed as N{Alpha}([Aib8,Glu22,Arg26,Arg34]-GLP-1-(7-37)-peptidyl)-N{Epsilon}[(2S)-2,6-bis[[2-[2-[2-[[2-[2-[2-[[(4S)-4-carboxy-4-(19-carboxynonadecanoylamino)butanoyl]amino]ethoxy]ethoxy]acetyl]amino]ethoxy]ethoxy]acetyl]amino]hexanoyl]Lys
notes: Side chain read from the name: eps-Lys(Bis) branched linker, each leg C20 diacid-gGlu-2xOEG
B10: [Aib8,Glu22,Arg26,Arg34]-GLP-1-(7-37)-peptidyl-Ser-N{Epsilon}[(2S)-2,6-bis[[2-[2-[2[[2-[2-[2-[[(4S)-4-carboxy-4-[[4-[(19-carboxynonadecanoylamino)methyl]cyclohe … (peptide)
peptide: H[Aib]EGTFTSDVSSYLEEQAAREFIAWLVRGRGSK([Lys(Bis)-code 2xAEEA-AEEA-γGlu-Trx-C20 diacid])
modifications: reading uncertain; also: printed as [Aib8,Glu22,Arg26,Arg34]-GLP-1-(7-37)-peptidyl-Ser-N{Epsilon}[(2S)-2,6-bis[[2-[2-[2[[2-[2-[2-[[(4S)-4-carboxy-4-[[4-[(19-carboxynonadecanoylamino)methyl]cyclohexanecarbonyl]amino]butanoyl]amino]ethoxy]ethoxy]acetyl]amino]ethoxy]ethoxy]acetyl]amino]hexanoyl]Lys
notes: as for B1
B11: [Aib8,Glu22,Arg26,Arg34]-GLP-1-(7-37)-peptidyl-Gly-Ser-N{Epsilon}[(2S)-2,6-bis[[2-[2-[2-[[2-[2-[2-[[(4S)-4-carboxy-4-[[4-[(19-carboxynonadecanoylamino)methyl]cy … (peptide)
peptide: H[Aib]EGTFTSDVSSYLEEQAAREFIAWLVRGRGGSK([code LysOEG-AEEA-γGlu-Trx-C20 diacid)(OEG-AEEA-γGlu-Trx-C20 diacid])
modifications: reading uncertain; also: printed as [Aib8,Glu22,Arg26,Arg34]-GLP-1-(7-37)-peptidyl-Gly-Ser-N{Epsilon}[(2S)-2,6-bis[[2-[2-[2-[[2-[2-[2-[[(4S)-4-carboxy-4-[[4-[(19-carboxynonadecanoylamino)methyl]cyclohexanecarbonyl]amino]butanoyl]amino]ethoxy]ethoxy]acetyl]amino]ethoxy]ethoxy]acetyl]amino]hexanoyl]Lys
notes: as for B1
B12: [Aib8,Glu22,Arg26,Arg34]-GLP-1-(7-37)-peptidyl-Ser-Ser-Gly-Ala-Pro-N{Epsilon}[(2S)-2,6-bis[[2-[2-[2-[[2-[2-[2-[[(4S)-4-carboxy-4-[[4-[(19-carboxynonadecanoylami … (peptide)
peptide: H[Aib]EGTFTSDVSSYLEEQAAREFIAWLVRGRGSSGAPK([Lys(Bis)-code 2xAEEA-AEEA-γGlu-Trx-C20 diacid])
modifications: reading uncertain
notes: as for B1
B13: [Aib8,Glu22,Arg26,Arg34]-GLP-1-(7-37)-peptidyl-Ser-Ser-Ala-Glu-Gly-N{Epsilon}[(2S)-2,6-bis[[2-[2-[2-[[2-[2-[2-[[(4S)-4-carboxy-4-[[4-[(19-carboxynonadecanoylami … (peptide)
peptide: H[Aib]EGTFTSDVSSYLEEQAAREFIAWLVRGRGSSAEGK([Lys(Bis)-code 2xAEEA-AEEA-γGlu-Trx-C20 diacid])
modifications: reading uncertain
notes: as for B1
B14: [Aib8,Glu22,Arg26,Arg34]-GLP-1-(7-37)-peptidyl-Ser-Ser-Pro-Ala-Ala-N{Epsilon}[(2S)-2,6-bis[[2-[2-[2-[[2-[2-[2-[[(4S)-4-carboxy-4-[[4-[(19-carboxynonadecanoylami … (peptide)
peptide: H[Aib]EGTFTSDVSSYLEEQAAREFIAWLVRGRGSSPAAK([Lys(Bis)-code 2xAEEA-AEEA-γGlu-Trx-C20 diacid])
modifications: reading uncertain
notes: as for B1
B15: [Aib8,Glu22,Arg26,Arg34]-GLP-1-(7-37)-peptidyl-Ser-Ser-Glu-Ala-Glu-N{Epsilon}[(2S)-2,6-bis[[2-[2-[2-[[2-[2-[2-[[(4S)-4-carboxy-4-[[4-[(19-carboxynonadecanoylami … (peptide)
peptide: H[Aib]EGTFTSDVSSYLEEQAAREFIAWLVRGRGSSEAEK([Lys(Bis)-code 2xAEEA-AEEA-γGlu-Trx-C20 diacid])
modifications: reading uncertain
notes: as for B1
B16: [Aib8,Glu22,Arg26,Arg34]-GLP-1-(7-37)-peptidyl-Gly-Gly-Ser-N{Epsilon}[(2S)-2,6-bis[[2-[2-[2-[[2-[2-[2-[[(4S)-4-carboxy-4-[[4-[(19-carboxynonadecanoylamino)methy … (peptide)
peptide: H[Aib]EGTFTSDVSSYLEEQAAREFIAWLVRGRGGGSK([code LysOEG-AEEA-γGlu-Trx-C20 diacid)(OEG-AEEA-γGlu-Trx-C20 diacid])
modifications: reading uncertain; also: printed as [Aib8,Glu22,Arg26,Arg34]-GLP-1-(7-37)-peptidyl-Gly-Gly-Ser-N{Epsilon}[(2S)-2,6-bis[[2-[2-[2-[[2-[2-[2-[[(4S)-4-carboxy-4-[[4-[(19-carboxynonadecanoylamino)methyl]cyclohexanecarbonyl]amino]butanoyl]amino]ethoxy]ethoxy]acetyl]amino]ethoxy]ethoxy]acetyl]amino]hexanoyl]Lys
notes: as for B1

Biological target: T1, human GLP-1 receptor (human, UniProt P43220 24-463)
T1 construct: whole, on cells
Assay: SPA competition vs 125I-GLP-1(7-36)NH2, hGLP-1R BHK membranes, high HSA (2.0%)
Experimental: (§1) For the receptor binding assay in the presence of low HSA (0.005%) 50 μl of the assay buffer was added to each well of an assay plate. […] For the receptor binding assay in the presence of high HSA (2%) 50 μl of the 8% albumin stock was added to each well of an assay plate. […] Cell membrane aliquots were thawed and diluted to their working concentration. Fifty μl were added to each well in the assay plate. […] WGA SPA beads were suspended in assay buffer at 20 mg/ml. The suspension was diluted to 10 mg/ml in assay buffer just prior to addition to the assay plate. Fifty μl were added to each well in the assay plate. […] A 25 μl aliquot was reserved for measuring total counts/well. […] The assay plate was incubated for 2 h at 30° C. […] The assay plate was centrifuged for 10 min. […] The assay plate was read in a Packard TopCount NXT instrument.

In order of falling IC50:
1. B4  175 nM
2. B15  85 nM
3. B3  84 nM
4. B10  83 nM
5. B2  78 nM
6. B1  68 nM
7. B5  68 nM
8. B9  64 nM
9. B13  63 nM
10. B16  59 nM
11. B8  54 nM
12. B14  51 nM
13. B6  50 nM
14. B12  28 nM
15. B7  27 nM
16. B11  25 nM

Biological target: T1, human GLP-1 receptor
Assay: cell-based or functional assay

In order of rising “EC50 (pM), in vitro potency, CRE luciferase reporter gene assay in BHK cells expressing the human GLP-1 receptor” value:
1. B3  12 pM
2. B13  12 pM
3. B7  13 pM
4. B1  14 pM
5. B6  15 pM
6. B8  16 pM
7. B15  19 pM
8. B14  22 pM
9. B9  25 pM
10. B10  44 pM
11. B11  51 pM
12. B5  55 pM
13. B2  70 pM
14. B16  87 pM
15. B4  94 pM
16. B12  99 pM

Biological target: T1, human GLP-1 receptor
Assay: SPA competition vs 125I-GLP-1(7-36)NH2, hGLP-1R BHK membranes, low HSA
Experimental: as §1

In order of falling IC50:
1. B14  4.8 nM
2. B13  3.2 nM
3. B15  3.1 nM
4. B1  2.9 nM
5. B6  2.9 nM
6. B16  1.93 nM
7. B7  1.7 nM
8. B4  1.64 nM
9. B12  0.99 nM
10. B8  0.91 nM
11. B2  0.9 nM
12. B5  0.76 nM
13. B11  0.74 nM
14. B10  0.61 nM
15. B3  0.57 nM
16. B9  0.45 nM
